Laboratory results from patent US20250019461A1 (HUMMINGBIRD BIOSCIENCE PTE, published 2025).

How the values were obtained:
[1] = target: T1, human HER3 expressed at the cell surface (human, UniProt P21860 20-1342); assay: flow cytometry on HEK293 cells overexpressing human HER3 (HEK293 O/E H3), antibody 20 µg/ml, FITC anti-Fc secondary; same antibody on WT HEK293: 0.60
T1 construct: also called HEK293 HER3 O/E cells; HEK293 cells transfected with vector encoding human HER3

[2] = target: T1, human HER3 expressed at the cell surface; assay: as above; remark: listed apart in the source
[3] = target: T2, human EGFR (human, UniProt P00533 25-645); assay: ELISA, plate coated with 0.1 µg/ml human EGFR, antibody serially diluted
T2 construct: also called human HER1 (EGFR) (Sino Biological)

[4] = target: T3, human HER2 (human, UniProt P04626 23-652); assay: ELISA, plate coated with 0.1 µg/ml human HER2, antibody serially diluted
T3 construct: also called human HER2 (Sino Biological)

[5] = target: T4, recombinant human HER3 polypeptide (His-tagged) (human, UniProt P21860 20-643, biotinylated in the HER2 (Example 4.1) and EGFR (Example 8.7) dimerisation ELISAs); assay: plate ELISA of the EGFR:HER3 interaction: human EGFR-His coat, HER3-biotin 4 µg/ml and NRG 0.1 µg/ml with titrated antibody, avidin HRP detection; blocked partner EGFR-His
T4 construct: Soluble recombinant human HER3 preparations of the ELISA, BLI and dimerisation assays are gathered here; also called His-tagged human HER3; human HER3 polypeptide (Sino Biological); not shown: His tag

[6] = target: T1, human HER3 expressed at the cell surface; assay: flow cytometry on HEK293 cells overexpressing human HER3 (HEK293 O/E H3), antibody 20 µg/ml, FITC anti-Fc secondary; same antibody on WT HEK293: 1.91
[7] = target: T4, recombinant human HER3 polypeptide …; assay: ELISA, plate coated with human HER3, antibody serially diluted

B1: anti-HER3 clone 10D1 IgG1 (antibody)
heavy: not shown
light: DIVMTQSQKFMSTSVGDRVSVTCKASQIVGSNVAWYQQKPGQSPKPLIYSASYRYSGVPDRFTASGSGTDFTLTITNVQSEDLAEYFCQQYSSHPLTFGAGTKLELKRTVAAPSVFIFPPSDEQLKSGTASVVCLLNNFYPREAKVQWKVDNALQSGNSQESVTEQDSKDSTYSLSSTLTLSKADYEKHKVYACEVTHQGLSSPVTKSFNRGEC
notes: Human-mouse chimeric IgG1 kappa; also called 10D1P; 10D1 (parental)
[1]
  % Parent (HER3 positive): 99%
[2]
  % Parent (HER3 positive): 99%
[3]
  binding result: no binding (tested: about log -6.7 M (10 µg/ml per paragraph 597))
[4]
  binding result: no binding (tested: about log -6.7 M (10 µg/ml per paragraph 597))

B2: MM-121 (antibody, V domains shown)
VH: EVQLLESGGGLVQPGGSLRLSCAASGFTFSAYNMRWVRQAPGKGLEWVSVIYPSGGATRYADSVKGRFTISRDNSKNTLYLQMNSLRAEDTAVYYCARGYYYYGMDVWGQGTLVTVSS
VL: QSVLTQPPSASGTPGQRVTISCSGSDSNIGRNYIYWYQQFPGTAPKLLIYRNNQRPSGVPDRISGSKSGTSASLAISGLRSEDEAEYHCGTWDDSLSGPVFGGGTKLTVL
[5]
  IC50: 54.2 nM

B3: anti-HER3 antibody clone LJM716 (antibody, V domains shown)
VH: EVQLLESGGGLVQPGGSLRLSCAASGFTFSSYAMSWVRQAPGKGLEWVSAINSQGKSTYYADSVKGRFTISRDNSKNTLYLQMNSLRAEDTAVYYCARWGDEGFDIWGQGTLVTVSS
VL: DIQMTQSPSSLSASVGDRVTITCRASQGISNWLAWYQQKPGKAPKLLIYGASSLQSGVPSRFSGSGSGTDFTLTISSLQPEDFATYYCQQYSSFPTTFGQGTKVEIK
[6]
  % Parent (HER3 positive): 99.5%

B4: anti-HER3 clone 10D1_c91 IgG1 (antibody, V domains shown)
VH: QVQLQESGPGLVKPSQTLSLTCTVSGYYITSGYSWHWIRQHPGKGLEWIGSIRYSGGTDYNPSLKSLATISADTSKNQFSLKLSSVTAADTAVYYCARMTTAPWYPFDYWGQGTAVTVSS
VL: DIQMTQSPSSVSASVGDRVTITCKASQIVGSNVAWYQQKPGKAPMPLIYSASYGYSGVPSRFSGSGSGTDFTLTISSLQPEDFATYYCQQYSSHPLTFGQGTKLEIKR
notes: Humanised 10D1 variant, IgG1 kappa; also called [18]
[7]
  EC50 (read off the curve): ~6 ng/mL
